Measurements taken from US12427210B2, “Compounds comprising a fibroblast activation protein ligand and use thereof” (priority 2019, dated 2025).

Key:
Details in all cases: remark: other sources report otherwise
[1] = biological target: 5-HT2A (h) (human), P28223; assay: radioligand displacement, compound at 10 µM
CB1 (h) (human), P21554 = biological target: T1, CB1 (h) (human), P21554; assay: radioligand displacement, compound at 10 µM
T1 chain: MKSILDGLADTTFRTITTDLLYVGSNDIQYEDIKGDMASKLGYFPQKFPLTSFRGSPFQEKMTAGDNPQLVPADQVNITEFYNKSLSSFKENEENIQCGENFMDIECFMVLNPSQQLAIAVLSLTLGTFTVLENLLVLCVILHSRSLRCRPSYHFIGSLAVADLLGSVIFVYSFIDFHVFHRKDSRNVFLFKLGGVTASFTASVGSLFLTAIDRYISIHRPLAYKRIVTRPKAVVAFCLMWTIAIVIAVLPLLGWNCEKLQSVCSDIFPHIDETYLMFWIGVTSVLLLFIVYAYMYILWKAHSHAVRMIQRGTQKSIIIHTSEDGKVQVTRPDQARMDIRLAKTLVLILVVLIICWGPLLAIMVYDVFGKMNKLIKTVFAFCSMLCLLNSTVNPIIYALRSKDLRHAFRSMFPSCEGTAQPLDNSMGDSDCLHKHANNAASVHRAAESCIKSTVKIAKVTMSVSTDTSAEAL

H1 (h) (human), P35367 = assay: radioligand displacement, compound at 10 µM
Chain of H1 (h) (human), P35367 (P35367 whole entry): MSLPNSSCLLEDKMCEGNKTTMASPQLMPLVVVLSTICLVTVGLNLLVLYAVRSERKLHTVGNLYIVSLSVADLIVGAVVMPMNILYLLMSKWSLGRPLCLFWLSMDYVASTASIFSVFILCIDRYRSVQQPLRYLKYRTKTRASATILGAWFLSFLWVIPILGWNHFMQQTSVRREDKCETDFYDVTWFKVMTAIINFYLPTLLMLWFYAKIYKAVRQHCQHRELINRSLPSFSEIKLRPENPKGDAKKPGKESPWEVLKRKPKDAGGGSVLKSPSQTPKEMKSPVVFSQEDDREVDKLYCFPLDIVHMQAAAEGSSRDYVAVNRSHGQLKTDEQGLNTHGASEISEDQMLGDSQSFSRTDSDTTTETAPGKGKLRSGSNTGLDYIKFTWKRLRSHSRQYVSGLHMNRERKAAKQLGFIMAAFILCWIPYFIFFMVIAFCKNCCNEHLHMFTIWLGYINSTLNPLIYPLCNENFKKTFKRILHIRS

H2 (h) (human), P25021 = assay: radioligand displacement, compound at 10 µM
Chain of H2 (h) (human), P25021 (P25021 whole entry): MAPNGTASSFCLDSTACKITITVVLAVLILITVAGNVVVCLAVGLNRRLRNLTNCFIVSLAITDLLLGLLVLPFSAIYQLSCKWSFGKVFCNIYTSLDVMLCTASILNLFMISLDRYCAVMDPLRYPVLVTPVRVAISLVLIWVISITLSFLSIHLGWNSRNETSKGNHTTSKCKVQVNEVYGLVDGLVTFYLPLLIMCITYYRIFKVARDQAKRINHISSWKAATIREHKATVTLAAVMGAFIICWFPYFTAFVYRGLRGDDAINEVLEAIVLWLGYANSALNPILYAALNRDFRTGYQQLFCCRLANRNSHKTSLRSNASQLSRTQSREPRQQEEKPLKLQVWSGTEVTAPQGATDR

V1a (h) (human), P37288 = assay: radioligand displacement, compound at 10 µM
[2] = biological target: T2, delta (DOP) (h) (human), P41143; assay: radioligand displacement, compound at 10 µM
T2 chain: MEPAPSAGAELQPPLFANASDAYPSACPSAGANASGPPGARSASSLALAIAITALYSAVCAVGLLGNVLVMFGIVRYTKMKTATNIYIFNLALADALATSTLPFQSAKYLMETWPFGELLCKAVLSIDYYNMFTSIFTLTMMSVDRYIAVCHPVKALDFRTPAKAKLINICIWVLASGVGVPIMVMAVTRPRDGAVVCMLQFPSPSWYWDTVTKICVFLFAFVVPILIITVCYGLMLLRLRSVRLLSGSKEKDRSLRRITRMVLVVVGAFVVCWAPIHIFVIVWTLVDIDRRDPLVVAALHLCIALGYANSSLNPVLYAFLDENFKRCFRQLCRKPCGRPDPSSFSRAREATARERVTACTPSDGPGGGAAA

[3] = biological target: norepinephrine transporter (h) (human), P23975; assay: radioligand displacement, compound at 10 µM
Chain of norepinephrine transporter (h) (human), P23975 (P23975 whole entry): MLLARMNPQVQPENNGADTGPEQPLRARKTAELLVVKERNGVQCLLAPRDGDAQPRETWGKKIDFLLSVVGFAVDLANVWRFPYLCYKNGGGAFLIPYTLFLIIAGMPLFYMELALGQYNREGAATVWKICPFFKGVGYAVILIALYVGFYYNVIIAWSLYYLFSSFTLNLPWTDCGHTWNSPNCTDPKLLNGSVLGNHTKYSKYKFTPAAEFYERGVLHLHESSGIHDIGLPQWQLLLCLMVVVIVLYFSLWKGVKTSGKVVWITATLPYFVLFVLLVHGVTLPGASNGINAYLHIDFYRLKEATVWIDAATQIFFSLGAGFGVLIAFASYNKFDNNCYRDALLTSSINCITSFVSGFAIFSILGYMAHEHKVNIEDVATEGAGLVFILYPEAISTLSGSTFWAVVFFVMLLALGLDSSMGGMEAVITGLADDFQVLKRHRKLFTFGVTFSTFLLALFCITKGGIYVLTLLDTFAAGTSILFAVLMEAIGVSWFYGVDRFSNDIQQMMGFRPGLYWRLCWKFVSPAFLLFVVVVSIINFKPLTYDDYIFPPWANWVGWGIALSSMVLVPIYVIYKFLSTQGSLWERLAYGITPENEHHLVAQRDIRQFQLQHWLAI

[4] = biological target: T3, Potassium Channel hERG (human) (human), Q12809; assay: displacement of [3H] Dofetilide, compound at 10 µM
T3 chain: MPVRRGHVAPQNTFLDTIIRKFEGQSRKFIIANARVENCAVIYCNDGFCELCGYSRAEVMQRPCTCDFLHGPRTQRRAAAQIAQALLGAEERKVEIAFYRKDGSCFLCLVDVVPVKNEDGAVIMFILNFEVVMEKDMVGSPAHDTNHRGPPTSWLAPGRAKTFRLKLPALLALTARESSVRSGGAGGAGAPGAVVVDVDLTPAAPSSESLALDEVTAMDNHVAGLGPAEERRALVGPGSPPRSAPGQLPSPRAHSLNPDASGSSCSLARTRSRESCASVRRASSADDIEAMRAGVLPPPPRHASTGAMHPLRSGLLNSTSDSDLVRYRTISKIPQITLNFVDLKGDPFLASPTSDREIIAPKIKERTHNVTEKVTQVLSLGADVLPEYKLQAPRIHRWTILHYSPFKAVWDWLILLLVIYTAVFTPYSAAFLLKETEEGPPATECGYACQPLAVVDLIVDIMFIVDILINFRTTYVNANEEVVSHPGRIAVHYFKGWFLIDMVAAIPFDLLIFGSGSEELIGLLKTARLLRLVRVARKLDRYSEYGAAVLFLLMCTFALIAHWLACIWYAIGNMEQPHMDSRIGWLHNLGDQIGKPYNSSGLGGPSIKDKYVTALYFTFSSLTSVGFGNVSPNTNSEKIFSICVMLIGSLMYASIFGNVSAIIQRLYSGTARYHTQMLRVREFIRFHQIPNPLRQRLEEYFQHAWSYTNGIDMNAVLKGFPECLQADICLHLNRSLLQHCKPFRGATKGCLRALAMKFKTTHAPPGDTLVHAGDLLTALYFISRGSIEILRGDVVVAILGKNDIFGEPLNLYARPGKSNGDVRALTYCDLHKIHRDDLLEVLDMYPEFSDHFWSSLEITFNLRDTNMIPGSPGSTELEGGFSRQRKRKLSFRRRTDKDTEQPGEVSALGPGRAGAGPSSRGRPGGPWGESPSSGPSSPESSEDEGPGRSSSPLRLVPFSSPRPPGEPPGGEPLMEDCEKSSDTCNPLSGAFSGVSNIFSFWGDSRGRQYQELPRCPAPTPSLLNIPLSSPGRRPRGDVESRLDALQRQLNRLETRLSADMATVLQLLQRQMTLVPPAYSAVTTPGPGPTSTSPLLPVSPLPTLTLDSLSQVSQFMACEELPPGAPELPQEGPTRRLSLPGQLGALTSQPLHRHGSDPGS

[5] = biological target: human fibroblast activation protein (FAP) on human WI-38 fibroblasts (human); assay: competitive FACS binding on FAP-expressing WI-38 cells against 3 nM Cy5-labeled compound; category A = pIC50 values >8.0

Chain of 5-HT2A (h) (human), P28223 (P28223 whole entry): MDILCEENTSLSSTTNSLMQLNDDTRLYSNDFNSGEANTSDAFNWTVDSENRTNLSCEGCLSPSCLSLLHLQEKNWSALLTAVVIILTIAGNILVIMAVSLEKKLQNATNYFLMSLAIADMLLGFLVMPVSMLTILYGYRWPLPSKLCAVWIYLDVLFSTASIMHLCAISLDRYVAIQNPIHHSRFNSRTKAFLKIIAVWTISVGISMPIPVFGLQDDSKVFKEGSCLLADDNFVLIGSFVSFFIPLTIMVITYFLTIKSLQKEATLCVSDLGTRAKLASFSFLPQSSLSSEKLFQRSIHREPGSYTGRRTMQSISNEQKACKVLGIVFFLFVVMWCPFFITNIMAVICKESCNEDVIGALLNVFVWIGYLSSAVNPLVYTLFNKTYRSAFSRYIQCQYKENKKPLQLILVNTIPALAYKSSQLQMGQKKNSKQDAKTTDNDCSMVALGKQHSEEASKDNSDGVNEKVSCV

Row | % Inhibition of Specific Binding [1] [%] | % Inhibition of Specific Binding (CB1 (h) (human), P21554) [%] | % Inhibition of Specific Binding (H1 (h) (human), P35367) [%] | % Inhibition of Specific Binding (H2 (h) (human), P25021) [%] | % Inhibition of Specific Binding (V1a (h) (human), P37288) [%] | % Inhibition of Specific Binding [2] [%] | % Inhibition of Specific Binding [3] [%] | pIC50 Category (FACS) [5] [pIC50] | Binder | % Inhibition of Specific Binding [4] [%]
1 | 4 | -7 | 4 | -16 | 1 | 1 | -5 | > 8 | CPPTQFC (here or on the partner: N-terminal hexanoyl (Hex); Cys1 and Cys7 cyclised through tMeBn carrying DOTA-AET; free C-terminal acid (-OH)) [Hex-[Cys(tMeBn(DOTA-AET))-Pro-Pro-Thr-Gln-Phe-Cys]-OH (3BP-3554)] | 6
2 | -2 | 5 | 11 | -5 | 16 | 0 | -8 |  | CPPTQFCD (here or on the partner: N-terminal hexanoyl (Hex); Cys1 and Cys7 cyclised through tMeBn carrying DOTA-PP; C-terminal amide) [Hex-[Cys(tMeBn(DOTA-PP))-Pro-Pro-Thr-Gln-Phe-Cys]-Asp-NH2 (3BP-3407)] | 2
